The record followed here is article PMC11536449.

Like-named read-outs stand apart in the source and are kept apart here.

Data set [1] deals with T1, CmRSM1-GST (Cucumis melo (melon), UniProt A0A1S3CDK8 1-116).
T1 sequence: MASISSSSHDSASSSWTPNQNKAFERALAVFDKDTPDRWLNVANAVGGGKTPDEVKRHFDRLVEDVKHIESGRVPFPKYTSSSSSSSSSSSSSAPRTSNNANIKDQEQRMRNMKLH
In words: EMSA. In general terms: A gel shift assay detects complexes by their altered migration in electrophoresis.

The target of data set [2] is T1, CmRSM1-GST. In words: EMSA. The source holds these as a separate data set.

B1: P2 probe (CmBr promoter, MYB and MBS motifs) (dsDNA)
DNA 1: GACAACAAATTTATAAGTAATTGTTCAACCAACTGAAAACGAGAAAAGTAAATATATCT
DNA 2: AGATATATTTACTTTTCTCGTTTTCAGTTGGTTGAACAATTACTTATAAATTTGTTGTC
Turning to B1, the binding result in data set [1] is “no binding”.

B2: P3 probe (CmBr promoter, MRE motif) (dsDNA)
DNA 1: ACTTAGTTTTGAGATCAAATAACTCCTTAGGTTAGTTAATCATTCATTGATTCAATCAA
DNA 2: TTGATTGAATCAATGAATGATTAACTAACCTAAGGAGTTATTTGATCTCAAAACTAAGT
As to B2, the binding result in data set [1] was “no binding”.

B3: P1 probe (CmBr promoter, Myb motif) (dsDNA)
DNA 1: ACATTTACTTTTAGATGAAATTGTAACAGTTAGCTAAGTCGTTCACTTCGTTGAAATTA
DNA 2: TAATTTCAACGAAGTGAACGACTTAGCTAACTGTTACAATTTCATCTAAAAGTAAATGT
For the molecule B3, the binding result in data set [2] is recorded as “binds”.
